Here are results for three variants from IntAct's records for PubMed 20404169.

The labels stand for the following.
B1: Protein kinase C and casein kinase substrate in neurons protein 1 (Mus musculus), Q61644 (parent)
chain: MSGSYDEASEEITDSFWEVGNYKRTVKRIDDGHRLCNDLMSCVQERAKIEKAYAQQLTDWAKRWRQLIEKGPQYGSLERAWGAMMTEADKVSELHQEVKNSLLNEDLEKVKNWQKDAYHKQIMGGFKETKEAEDGFRKAQKPWAKKMKELEAAKKAYHLACKEERLAMTREMNSKTEQSVTPEQQKKLVDKVDKCRQDVQKTQEKYEKVLEDVGKTTPQYMEGMEQVFEQCQQFEEKRLVFLKEVLLDIKRHLNLAENSSYMHVYRELEQAIRGADAQEDLRWFRSTSGPGMPMNWPQFEEWNPDLPHTTAKKEKQPKKAEGATLSNATGAVESTSQAGDRGSVSSYDRGQTYATEWSDDESGNPFGGNEANGGANPFEDDAKGVRVRALYDYDGQEQDELSFKAGDELTKLGEEDEQGWCRGRLDSGQLGLYPANYVEAI
partner: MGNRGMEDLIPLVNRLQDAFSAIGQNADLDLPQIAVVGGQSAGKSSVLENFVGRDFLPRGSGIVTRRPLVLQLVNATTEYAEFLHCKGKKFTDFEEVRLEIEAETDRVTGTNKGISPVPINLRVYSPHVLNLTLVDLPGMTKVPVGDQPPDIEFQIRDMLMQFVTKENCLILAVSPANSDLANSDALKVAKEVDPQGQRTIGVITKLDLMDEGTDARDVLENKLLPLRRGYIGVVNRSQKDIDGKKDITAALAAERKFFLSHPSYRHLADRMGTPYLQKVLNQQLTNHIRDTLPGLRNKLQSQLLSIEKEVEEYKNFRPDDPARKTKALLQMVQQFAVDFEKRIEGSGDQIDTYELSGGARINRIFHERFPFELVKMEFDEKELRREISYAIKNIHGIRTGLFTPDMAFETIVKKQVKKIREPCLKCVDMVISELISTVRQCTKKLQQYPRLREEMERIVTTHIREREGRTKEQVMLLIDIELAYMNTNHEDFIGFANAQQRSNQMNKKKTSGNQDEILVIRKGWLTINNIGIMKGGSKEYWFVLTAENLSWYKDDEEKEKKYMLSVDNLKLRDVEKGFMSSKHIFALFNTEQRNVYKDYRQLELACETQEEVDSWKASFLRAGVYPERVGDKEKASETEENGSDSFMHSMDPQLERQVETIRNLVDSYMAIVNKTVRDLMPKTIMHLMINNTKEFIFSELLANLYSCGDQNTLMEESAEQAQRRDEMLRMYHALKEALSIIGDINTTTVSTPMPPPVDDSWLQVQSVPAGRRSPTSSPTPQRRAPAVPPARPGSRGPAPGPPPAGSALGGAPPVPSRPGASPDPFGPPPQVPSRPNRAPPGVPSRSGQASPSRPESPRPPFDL

The assay covers variants of B1. To be noted: with dyn1_human DNM1, Q05193.
Consider D394R;E400R, for which the “effect of a mutation on the interaction” value is “decreasing interaction strength”. The entry for P434L is “decreasing interaction”; for E400R it is “decreasing interaction”.
